For the first experiment, the target named is HLA-A*02 (Homo sapiens, UniProt P04439, D140Y/D185E/D98H/E176V/E277Q/G131W/G231S/I119V/I121R/I166T/I218V/N151K/N90K/P208A/P217A/Q86G/Q94H/R138H/R169H). Briefly: UV-ligand exchange / peptide binding to MHC class I (beta2m ELISA). Particulars: Table 10A; peptide exchange yield, UV-ligand exchange, β2m ELISA. The text has this:
Candidate peptides for T cell based therapies according to the present invention were further tested for their MHC binding capacity (affinity). The individual peptide-MHC complexes were produced by UV-ligand exchange, where a UV-sensitive peptide is cleaved upon UV-irradiation, and exchanged with the peptide of interest as analyzed. Only peptide candidates that can effectively bind and stabilize the peptide-receptive MHC molecules prevent dissociation of the MHC complexes. To determine the yield of the exchange reaction, an ELISA was performed based on the detection of the light chain (β2m) of stabilized MHC complexes. The assay was performed as generally described in Rodenko et al. (Rodenko B, Toebes M, Hadrup S R, van Esch W J, Molenaar A M, Schumacher T N, Ovaa H. Generation of peptide-MHC class I complexes through UV-mediated ligand exchange. Nat Protoc. 2006; 1(3):1120-32).
96 well MAXISorp plates (NUNC) were coated over night with 2 ug/ml streptavidin in PBS at room temperature, washed 4× and blocked for 1 h at 37° C. in 2% BSA containing blocking buffer. Refolded HLA-A*0201/MLA-001 monomers served as standards, covering the range of 15-500 ng/ml. Peptide-MHC monomers of the UV-exchange reaction were diluted 100 fold in blocking buffer. Samples were incubated for 1 h at 37° C., washed four times, incubated with 2 ug/ml HRP conjugated anti-β2m for 1 h at 37° C., washed again and detected with TMB solution that is stopped with […]. Absorption was measured at 450 nm. Candidate peptides that show a high exchange yield (preferably higher than 50%, most preferred higher than 75%) are generally preferred for a generation and production of antibodies or fragments thereof, and/or T cell receptors or fragments thereof, as they show sufficient avidity to the MHC molecules and prevent dissociation of the MHC complexes.
In the case of “5 (ALVEQGFTV; listed as Homo sapiens) [compound 5]”, the “Peptide exchange (MHC class I binding score)” value (from here on “Peptide exchange”) was “++++ (>=75% = ++++)”.
The same measure, in the same setting: in the case of “220 (SLLEKELESV; listed as Homo sapiens) [compound 220]” it was “+++ (50%-75% = +++)”.

The same experiment, now with this note: Table 10B; peptide exchange yield; HLA-A*02 peptides.
With “142 (AVIGGLIYV; listed as Homo sapiens) [compound 142]”, the “Peptide exchange” value was ““++++” (≥75% = ++++)”.
Still for that read-out and setting: in the case of “291 (QLIDYERQL; listed as Homo sapiens) [compound 291]” it was ““+++” (≥50 = +++)”; in that of “242 (GLFAPVHKV; listed as Homo sapiens) [compound 242]”, ““+++” (≥50 = +++)”; in that of “265 (WLIEDGKVVTV; listed as Homo sapiens) [compound 265]”, ““++++” (≥75% = ++++)”.
On the same count and under the same terms, in the case of “147 (GLAPGGLAVV; listed as Homo sapiens) [compound 147]” it was ““+++” (≥50 = +++)”; in that of “233 (ALLGKLDAI; listed as Homo sapiens) [compound 233]”, ““++++” (≥75% = ++++)”.
On the same count and under the same terms, in the case of “61 (KIADFELPTI; listed as Homo sapiens) [compound 61]” it was ““++++” (≥75% = ++++)”.
As to “46 (AMAEMKVVL; listed as Homo sapiens) [compound 46]”, the “Peptide exchange” value is ““+++” (≥50 = +++)”.
Consider “48 (FLLEQPEIQV; listed as Homo sapiens) [compound 48]”, for which the “Peptide exchange” value is ““+++” (≥50 = +++)”.
Consider “235 (KLFEEIREI; listed as Homo sapiens) [compound 235]”, for which the “Peptide exchange” value was ““++++” (≥75% = ++++)”.
Still for that read-out and setting: in the case of “186 (VLLAQIIQV; listed as Homo sapiens) [compound 186]” it was ““+++” (≥50 = +++)”; in that of “34 (SLAEGTATV; listed as Homo sapiens) [compound 34]”, ““+++” (≥50 = +++)”; in that of “131 (ALDSGAFQSV; listed as Homo sapiens) [compound 131]”, ““+++” (≥50 = +++)”.
Regarding “137 (ALPTVLVGV; listed as Homo sapiens) [compound 137]”, the “Peptide exchange” value is recorded as ““++++” (≥75% = ++++)”.
In the case of “20 (KLSNVLQQV; listed as Homo sapiens) [compound 20]”, the “Peptide exchange” value is ““++++” (≥75% = ++++)”.
Same read-out and setting: in the case of “288 (LLDDSLVSI; listed as Homo sapiens) [compound 288]” it was ““+++” (≥50 = +++)”.
“240 (FLWERPTLLV; listed as Homo sapiens) [compound 240]”: the “Peptide exchange” value is listed as ““+++” (≥50 = +++)”.
Same read-out and setting: in the case of “127 (VLIGSNHSL; listed as Homo sapiens) [compound 127]” it was ““++++” (≥75% = ++++)”.
Same read-out and setting: in the case of “33 (LLHGHIVEL; listed as Homo sapiens) [compound 33]” it was ““+++” (≥50 = +++)”; in that of “114 (VLSQVYSKV; listed as Homo sapiens) [compound 114]”, ““+++” (≥50 = +++)”.
Consider “173 (SLTSEIHFL; listed as Homo sapiens) [compound 173]”, for which the “Peptide exchange” value is recorded as ““+++” (≥50 = +++)”.
The same measure, in the same setting: in the case of “38 (ALADVVHEA; listed as Homo sapiens) [compound 38]” it was ““+++” (≥50 = +++)”; in that of “78 (LLIDDEYKV; listed as Homo sapiens) [compound 78]”, ““+++” (≥50 = +++)”.
The same measure, in the same setting: in the case of “5 (ALVEQGFTV; listed as Homo sapiens) [compound 5]” it was ““++++” (≥75% = ++++)”.
The same measure, in the same setting: in the case of “170 (SLHNGVIQL; listed as Homo sapiens) [compound 170]” it was ““+++” (≥50 = +++)”.
Take “250 (NLAEVVERV; listed as Homo sapiens) [compound 250]”: the “Peptide exchange” value is given as ““++++” (≥75% = ++++)”.
The same measure, in the same setting: in the case of “164 (RMLIKLLEV; listed as Homo sapiens) [compound 164]” it was ““+++” (≥50 = +++)”; in that of “25 (SLDGKAALTEL; listed as Homo sapiens) [compound 25]”, ““+++” (≥50 = +++)”; in that of “66 (KLHEEIDRV; listed as Homo sapiens) [compound 66]”, ““+++” (≥50 = +++)”.
For “120 (YLGEEYVKA; listed as Homo sapiens) [compound 120]”, the “Peptide exchange” value was ““++” (≥20% = ++)”.
The same measure, in the same setting: in the case of “60 (ILSPLSVAL; listed as Homo sapiens) [compound 60]” it was ““++++” (≥75% = ++++)”; in that of “273 (AILETAPKEV; listed as Homo sapiens) [compound 273]”, ““+++” (≥50 = +++)”; in that of “138 (ALSQVTLLL; listed as Homo sapiens) [compound 138]”, ““++++” (≥75% = ++++)”.
On the same count and under the same terms, in the case of “76 (LLADIGGDPFAA; listed as Homo sapiens) [compound 76]” it was ““+++” (≥50 = +++)”.
The same measure, in the same setting: in the case of “115 (VVLDDKDYFL; listed as Homo sapiens) [compound 115]” it was ““+++” (≥50 = +++)”; in that of “23 (RLYDPASGTISL; listed as Homo sapiens) [compound 23]”, ““+++” (≥50 = +++)”.
“292 (RIPAYFVTV; listed as Homo sapiens) [compound 292]”: the “Peptide exchange” value is reported as ““++” (≥20% = ++)”.
On to “275 (ALIEGAGILL; listed as Homo sapiens) [compound 275]”, for which the “Peptide exchange” value is listed as ““+++” (≥50 = +++)”.
Still for that read-out and setting: in the case of “185 (ALFPALRPGGFQA; listed as Homo sapiens) [compound 185]” it was ““+++” (≥50 = +++)”; in that of “243 (GLLDNPELRV; listed as Homo sapiens) [compound 243]”, ““+++” (≥50 = +++)”.
Same read-out and setting: in the case of “71 (KLLDNWDSV; listed as Homo sapiens) [compound 71]” it was ““++++” (≥75% = ++++)”; in that of “82 (NVFDGLVRV; listed as Homo sapiens) [compound 82]”, ““+++” (≥50 = +++)”.
In the case of “3 (ILDDNMQKL; listed as Homo sapiens) [compound 3]”, the “Peptide exchange” value was ““+++” (≥50 = +++)”.
Same read-out and setting: in the case of “102 (SLWSVARGV; listed as Homo sapiens) [compound 102]” it was ““+++” (≥50 = +++)”; in that of “36 (ILNVDGLIGV; listed as Homo sapiens) [compound 36]”, ““+++” (≥50 = +++)”; in that of “245 (KLGAVFNQV; listed as Homo sapiens) [compound 245]”, ““++++” (≥75% = ++++)”.
For “63 (KIDEKNFVV; listed as Homo sapiens) [compound 63]”, the “Peptide exchange” value was ““+++” (≥50 = +++)”.
Consider “106 (TLAAIIHGA; listed as Homo sapiens) [compound 106]”, for which the “Peptide exchange” value is ““+++” (≥50 = +++)”.
Still for that read-out and setting: in the case of “119 (YLDKNLTVSV; listed as Homo sapiens) [compound 119]” it was ““+++” (≥50 = +++)”.
The same measure, in the same setting: in the case of “252 (RTIEYLEEV; listed as Homo sapiens) [compound 252]” it was ““+++” (≥50 = +++)”.
Same read-out and setting: in the case of “271 (LLLDKLILL; listed as Homo sapiens) [compound 271]” it was ““++++” (≥75% = ++++)”; in that of “42 (ALLGGNVRMML; listed as Homo sapiens) [compound 42]”, ““+++” (≥50 = +++)”; in that of “84 (QLTPVLVSV; listed as Homo sapiens) [compound 84]”, ““+++” (≥50 = +++)”.
Regarding “229 (KMFESFIESV; listed as Homo sapiens) [compound 229]”, the “Peptide exchange” value is ““+++” (≥50 = +++)”.
Same read-out and setting: in the case of “70 (KLLDLETERILL; listed as Homo sapiens) [compound 70]” it was ““++++” (≥75% = ++++)”.
On the same count and under the same terms, in the case of “22 (RIAGIRGIQGV; listed as Homo sapiens) [compound 22]” it was ““++++” (≥75% = ++++)”.
On the same count and under the same terms, in the case of “220 (SLLEKELESV; listed as Homo sapiens) [compound 220]” it was ““+++” (≥50 = +++)”; in that of “266 (SLLESNKDLLL; listed as Homo sapiens) [compound 266]”, ““+++” (≥50 = +++)”.
